The target of data set [1] is T1, Mre11ND Y187F (Pyrococcus furiosus, UniProt Q8U1N9 1-342, Y187F). Nature of the data set: fluorescence polarization. (Polarisation of emitted light reports the rotation of a fluorescent probe.)
Data set [2] concerns the target T2, Mre11ND WT (Pyrococcus furiosus, UniProt Q8U1N9 1-342). Nature of the data set: fluorescence polarization.
For data set [3], the target named is T3, Mre11 Y187C (in MRNBD);Rad50NBD (Pyrococcus furiosus;Pyrococcus furiosus, UniProt Q8U1N9;P58301 1-426;1-195+709-882, Y187C|internal_change). Nature of the data set: fluorescence polarization.
In data set [4] the target is T4, Mre11 WT (in MRNBD);Rad50NBD (Pyrococcus furiosus;Pyrococcus furiosus, UniProt Q8U1N9;P58301 1-426;1-195+709-882, |internal_change). Nature of the data set: fluorescence polarization.
The target in data set [5] is T5, Mre11 H52S (in MRNBD);Rad50NBD (Pyrococcus furiosus;Pyrococcus furiosus, UniProt Q8U1N9;P58301 1-426;1-195+709-882, H52S|internal_change). Nature of the data set: fluorescence polarization.
Data set [6] concerns the target T6, Mre11ND H52S (Pyrococcus furiosus, UniProt Q8U1N9 1-342, H52S). Nature of the data set: fluorescence polarization.
Data set [7] has as its target T7, Mre11ND Y187C (Pyrococcus furiosus, UniProt Q8U1N9 1-342, Y187C). Nature of the data set: fluorescence polarization.
Data set [8] addresses T8, Mre11 Y187F (in MRNBD);Rad50NBD (Pyrococcus furiosus;Pyrococcus furiosus, UniProt Q8U1N9;P58301 1-426;1-195+709-882, Y187F|internal_change). Nature of the data set: fluorescence polarization.
Data set [9] deals with T6, Mre11ND H52S. Nature of the data set: fluorescence polarization. The source holds these as a separate data set.
Data set [10] addresses T1, Mre11ND Y187F. Nature of the data set: fluorescence polarization. The source holds these as a separate data set.
Data set [11] has as its target T2, Mre11ND WT. Nature of the data set: fluorescence polarization. The source holds these as a separate data set.
Data set [12] concerns the target T7, Mre11ND Y187C. Nature of the data set: fluorescence polarization. This is another data set of the same source.
In data set [13] the target is T4, Mre11 WT (in MRNBD);Rad50NBD. Nature of the data set: fluorescence polarization. This is another data set of the same source.
Data set [14] deals with T8, Mre11 Y187F (in MRNBD);Rad50NBD. Nature of the data set: fluorescence polarization. The source holds these as a separate data set.
The target in data set [15] is T3, Mre11 Y187C (in MRNBD);Rad50NBD. Nature of the data set: fluorescence polarization. This is another data set of the same source.
The target of data set [16] is T5, Mre11 H52S (in MRNBD);Rad50NBD. Nature of the data set: fluorescence polarization. The source holds these as a separate data set.
Data set [17] concerns the target T1, Mre11ND Y187F. Nature of the data set: NMR imino proton melting.

Read-outs that look alike come from different tables or passages of the source.

Turning to GTGTTCGGACTCTGCCTCAAGACGGTAGTCAACGTGCTTG (ssDNA) [FAM 40-mer ssDNA], the dissociation constant (Kd) (usually the free concentration of one partner at which half of the binding sites on the other are occupied at equilibrium, for simple one-to-one binding) is 110 nM with Mre11ND Y187F [1]; 130 nM with Mre11ND WT [2]; 210 nM in data set [3]; 180 nM in [4]; 170 nM in data set [5]; 170 nM with Mre11ND H52S [6]. Further, the equilibrium dissociation constant (Kd) worked out at 240 nM with Mre11ND Y187C [7] and 190 nM in data set [8].

B1: FAM 40-mer dsDNA (dsDNA)
DNA 1: GTGTTCGGACTCTGCCTCAAGACGGTAGTCAACGTGCTTG
DNA 2: CAAGCACGTTGACTACCGTCTTGAGGCAGAGTCCGAACAC
Take B1: the Kd with Mre11ND H52S [9] was 3170 nM; with Mre11ND Y187F [10], 710 nM; with Mre11ND WT [11] it was 1300 nM; in the data set with Mre11ND Y187C [12], 1980 nM; in [13], 1410 nM; in [14] it was 1320 nM. Moreover, the Kd in data set [15] came to 1800 nM; in data set [16], 4170 nM.
Turning to CACGCACGTAGAAGCTTTTGCTTCTACGTGCGTGACT (structured_DNA) [hairpin dsDNA DSB mimic], the binding result in the data set with Mre11ND Y187F [17] is “binds”.
